From patent publication US20240317841A1 come the findings set out here.

In general, Kd refers to the equilibrium constant for the complex coming apart. High values mean lower affinity, low ones higher affinity. As a reminder, the kon is a measure of how fast the partners come together. Read a low kon as slow association. As a reminder, the koff is a measure of how fast the partners let go of each other. A low value points to slow dissociation.

Assay [1] concerns the target H17 (Influenza A virus). Description: FACS, HA on mammalian cells; 2nd only 4.1.
Assay [2] concerns the target H1-CAL (Influenza A virus). Description: FACS, HA on mammalian cells; 2nd only 7.4.
For assay [3], the target named is H4 (Influenza A virus). Description: FACS, HA on mammalian cells; 2nd only 11. In general terms: In flow cytometry, cells or beads pass a laser one at a time.
Assay [4] deals with H7 hemagglutinin (influenza A virus). The experiment in a line: BLI, HA-7.
In assay [5] the target is H5 hemagglutinin (influenza A virus). Description: BLI, HA-5. A general note: BLI is a label-free optical method that tracks binding on a fibre tip over time.
Assay [6] addresses H8 (Influenza A virus). The experiment in a line: FACS, HA on mammalian cells; 2nd only 7.9.
Assay [7] concerns the target H7 hemagglutinin (influenza A virus). The experiment in a line: BLI, HA-7; printed as kdis.
In assay [8] the target is H10 (Influenza A virus). Description: FACS, HA on mammalian cells; 2nd only 8.7.
In assay [9] the target is H15 (Influenza A virus). Description: FACS, HA on mammalian cells; 2nd only 12.
Assay [10] deals with H14 (Influenza A virus). The experiment in a line: FACS, HA on mammalian cells; 2nd only 12.
The target in assay [11] is H13 (Influenza A virus). The experiment in a line: FACS, HA on mammalian cells; 2nd only 12.
Assay [12] has as its target H18 (Influenza A virus). Description: FACS, HA on mammalian cells; 2nd only 5.5.
Assay [13] deals with H11 (Influenza A virus). The experiment in a line: FACS, HA on mammalian cells; 2nd only 8.1.
Assay [14] concerns the target H5 hemagglutinin (influenza A virus). The experiment in a line: BLI, HA-5; printed as kdis.
Assay [15] concerns the target H1-SC (Influenza A virus). Description: FACS, HA on mammalian cells; 2nd only 7.5.
For assay [16], the target named is H16 (Influenza A virus). The experiment in a line: FACS, HA on mammalian cells; 2nd only 6.9.
The target of assay [17] is H12 (Influenza A virus). The experiment in a line: FACS, HA on mammalian cells; 2nd only 9.7.
The target in assay [18] is H5 hemagglutinin (influenza A virus). The experiment in a line: BLI, HA-5 [Cont'd].
In assay [19] the target is H7 hemagglutinin (influenza A virus). The experiment in a line: BLI, HA-7; given as kdis.
The target is the same in assay [20]. Description: BLI, HA-7 [Cont'd].
For assay [21], the target named is H5 hemagglutinin (influenza A virus). The experiment in a line: BLI, HA-5; given as kdis.
In assay [22] the target is H16 (Influenza A virus). The experiment in a line: flow cytometry, HA on mammalian cells; mock cells 1.12 [cont'd].
For assay [23], the target named is H15 (Influenza A virus). The description is as above.
Assay [24] deals with H17 (Influenza A virus). The description is as above.
The target of assay [25] is H18 (Influenza A virus). The assay is described as above.
For assay [26], the target named is H14 (Influenza A virus). The description is as above.
Assay [27] has as its target HA from an H1N1 Swine Eurasian avian-like (EA) strain, A/Swine/Jiangsu/J004/2018 (influenza A virus (H1N1, A/Swine/Jiangsu/J004/2018)). The experiment in a line: flow cytometry, HA on mammalian cells; mock 3.31 [Cont'd].
The target is the same in assay [28]. The experiment in a line: flow cytometry, HA on mammalian cells; mock 4.41.
Assay [29] has the same target. The experiment in a line: flow cytometry, HA on mammalian cells; mock 7.62 [Cont'd].
The target of assay [30] is H10 (Influenza A virus). Description: flow cytometry, HA on mammalian cells; mock cells 1.12.
Assay [31] addresses H8 (Influenza A virus). The assay is described as above.
For assay [32], the target named is H4 (Influenza A virus). The description is as above.
In assay [33] the target is H11 (Influenza A virus). Described as above.
In assay [34] the target is H13 (Influenza A virus). The description is as above.
In assay [35] the target is H12 (Influenza A virus). The assay is described as above.

B1: FHF11v3 (antibody, V domains shown)
VH: QVQLQQSGPGLVKPSQTLSVTCGISGDSVSSYSAAWNWIRQSPSRGLEWLGRTYYRSKWYNDYAVSVKSRITINPDTSKNQFSLQLISVTPEDTAVYYCARVGAMTFGLLTGGMDVWGQGTTVTVSS
VL: EIVLTQSPGTQSLSPGERATLSCRASQSLSRSYLAWYQQRPGKPPRLLIYGASSRATGIPDRFSGSGSGTDFSLTISSLEPEDSAMYFCQYYGDSPLFSFGPGTKVDIK
Consider B1, for which the % cells binding to HA with H17 (Influenza A virus) [1] stood at 82%; in assay [2], 84%; with H4 (Influenza A virus) [3], 48%; with H8 (Influenza A virus) [6], 78%; with H10 (Influenza A virus) [8], 77%; with H15 (Influenza A virus) [9], 66%. Further, the % cells binding to HA with H14 (Influenza A virus) [10] came to 70%; in the assay with H13 (Influenza A virus) [11] it was 79%; with H18 (Influenza A virus) [12] it was 79%; with H11 (Influenza A virus) [13], 59%; in assay [15] it was 82%; with H16 (Influenza A virus) [16], 22%. In the assay with H12 (Influenza A virus) [17], the % cells binding to HA was 85%. Besides, the Kd was 5.11 nM in [4] and under 0.001 nM in assay [5]. The on-rate (kon) in [4] came out at 23000 M⁻¹ s⁻¹; in assay [5] it was 16400 M⁻¹ s⁻¹. Further, the off-rate constant (koff) is 0.000118 s⁻¹ in [7] and under 1e-07 s⁻¹ in assay [14].

B2: FHF11v9 (antibody, V domains shown)
VH: QVQLQQSGPGLVKPSQTLSVTCGISGDSVSSYSAAWNWIRQSPSRGLEWLGRTYYRSGWYNDYAVSVKSRITINPDTSKNQFSLQLISVTPEDTAVYYCARVGAMTFGLLTGGMDVWGQGTTVTVSS
VL: EIVLTQSPGTQSLSPGERATLSCRASQSLSRSYLAWYQQRPGKPPRLLIYGASSRATGIPDRFSGSGSGTDFSLTISSLEPEDSAMYFCQYYGDSPLFSFGPGTKVDIK
For the molecule B2, the % cells binding to HA in the assay with H17 (Influenza A virus) [1] is 82%; in assay [2] it was 85%; with H4 (Influenza A virus) [3], 47%; in the assay with H8 (Influenza A virus) [6] it was 78%; in the assay with H10 (Influenza A virus) [8] it was 79%; with H15 (Influenza A virus) [9], 63%. For the same molecule, the % cells binding to HA was found to be 70% in the assay with H14 (Influenza A virus) [10]; 75% in the assay with H13 (Influenza A virus) [11]; 78% with H18 (Influenza A virus) [12]; 59% in the assay with H11 (Influenza A virus) [13]; 80% in [15]; 13% in the assay with H16 (Influenza A virus) [16]. Besides, the % cells binding to HA in the assay with H12 (Influenza A virus) [17] stood at 86%. Moreover, the figures for the equilibrium dissociation constant (Kd) in assay [18] and in assay [20] were under 0.001 nM and 9.76 nM, respectively. The kon was determined as 16200 M⁻¹ s⁻¹ in assay [18] and 19800 M⁻¹ s⁻¹ in assay [20]. The off-rate (koff) in assay [19] is 0.000193 s⁻¹; in assay [21] it was under 1e-07 s⁻¹.

B3: FHF11v6 (antibody, V domains shown)
VH: QVQLQQSGPGLVKPSQTLSVTCGISGDSVSSHSAAWNWIRQSPSRGLEWLGRTYYRSGWYNDYAVSVKSRITINPDTSKNQFSLQLISVTPEDTAVYYCARVGAMTFGLLTGGMDVWGQGTTVTVSS
VL: EIVLTQSPGTQSLSPGERATLSCRASQSLSRSYLAWYQQRPGKPPRLLIYGASSRATGIPDRFSGSGSGTDFSLTISSLEPEDSAMYFCQYYGDSPLFSFGPGTKVDIK
As for B3, the % cells binding to HA with H17 (Influenza A virus) [1] came out at 82%; in assay [2] it was 85%; in the assay with H4 (Influenza A virus) [3], 49%; with H8 (Influenza A virus) [6], 77%; in the assay with H10 (Influenza A virus) [8], 82%; in the assay with H15 (Influenza A virus) [9] it was 75%. The % cells binding to HA in the assay with H14 (Influenza A virus) [10] came to 70%; with H13 (Influenza A virus) [11], 69%; with H18 (Influenza A virus) [12] it was 79%; in the assay with H11 (Influenza A virus) [13], 59%; in assay [15], 82%; with H16 (Influenza A virus) [16], 11%. In addition, the % cells binding to HA in the assay with H12 (Influenza A virus) [17] amounted to 87%. For the same molecule, the Kd in assay [18] was under 0.001 nM; in [20] it was 10.4 nM. Moreover, the on-rate (kon) in [18] stood at 13600 M⁻¹ s⁻¹; in [20], 16400 M⁻¹ s⁻¹. Besides, the results for the dissociation rate constant (koff) in assay [19] and in [21] were 0.000169 s⁻¹ and under 1e-07 s⁻¹, respectively.

B4: FHF12 (antibody, V domains shown)
VH: QVQLQQSGPGLVKPSQTLSVTCAISGDSVSSHSAAWNWIRQSPSRGLEWLGRTYYRSKWYNDYAVSVKSRITINPDTSKNQFSLQLVSVTPEDTAVYYCARVGAATFGILTGGMDVWGQGTTVTVSS
VL: EIVLTQSPGTQSLSPGDRATLSCRASQSLSRSYLAWYQQRPGKPPRLLIYGASSRATGIPDRFSGSGSGTDFSLTISSLEPEDSAMYFCQYYGDSPLFSFGPGTKVDIK
In the case of B4, the percent of cells in the gate in the assay with H16 (Influenza A virus) [22] is 25.7; with H15 (Influenza A virus) [23], 77.2; with H17 (Influenza A virus) [24], 98; with H18 (Influenza A virus) [25], 94.8; with H14 (Influenza A virus) [26], 80.4; with H10 (Influenza A virus) [30] it was 88.5. Also, the percent of cells in the gate with H8 (Influenza A virus) [31] was 89.6; with H4 (Influenza A virus) [32] it was 72.2; with H11 (Influenza A virus) [33] it was 37.8; with H13 (Influenza A virus) [34], 79.2; in the assay with H12 (Influenza A virus) [35], 75.3. Besides, the Alexa 647-A+ (percent of cells) at 2 µg/ml in assay [27] turned out to be 90.5. Further, the Alexa 647-A+ (percent of cells) at 10 µg/ml in assay [28] amounted to 90.6. This molecule came in with an Alexa 647-A+ (percent of cells) at 0.4 µg/ml in [29] of 85.1.
